Assay results taken from patent US20140045754A1, “GLP-1 COMPOSITIONS” (priority 2011, published 2014).

Tests used:
[1] = optimisation of liraglutide:protamine molar ratios: free liraglutide and protamine in supernatant by liquid chromatography; conditions: pH 7,8; 0,11 molecule of protamine per molecule of liraglutide
Procedure: In each of 8 containers, 10% of the resulting suspension was transferred. Under vigorous stirring, a specific portion of a 18 mM Protamine Chloride solution was added.
The initial container received 0,10 mL of the 18 mM Protamine Chloride solution, followed by 0,2 mL to the second container; ending with addition of 0,8 mL to the final container (number 8). Water was added to each of the eight containers to achieve a total of 5,0 grams of suspension. After 1 hour storage, about 1 mL were withdrawn from each container and centrifuged for 10 minutes at high speed.

[2] = achievable concentration of protamine sulphate stock solution with NaCl; assay type: physicochemical; conditions: 21° C.
Procedure: In one embodiment, the stock solution of the polycationic compound is prepared with NaCl. […] This allows the storage and/or use of higher concentrations and lowers the volumes of polycationic compound stock solution needed. This makes much larger volume available for either the GLP-1 compound stock solution or the solution of metal salt. Thereby, it is easier to control the mixing process, involving the aqueous solution of GLP-1 compound and the stock solution of metal salt. As a result of this, the injectability of the final formulation is improved, especially after storage at elevated temperatures. For example, a 30-60 mg/mL protamine sulphate stock solution is achievable at 21° C. when adding sodium chloride corresponding to a concentration of 0,3M, and a 30-80 mg/mL protamine sulphate stock solution is achievable at 21° C. when adding sodium chloride corresponding to a concentration of 0,5M.

Molecule | composition stability and incorporation of protamine [1] | achievable stock solution concentration ([2]; sodium chloride 0,3M) [mg/mL] | achievable stock solution concentration ([2]; sodium chloride 0,5M) [mg/mL]
CCCCCCCCCCCCCCCC(=O)N[C@@H](CCC(=O)NCCCC[C@H](NC(=O)[C@H](C)NC(=O)[C@H](C)NC(=O)[C@H](CCC(N)=O)NC(=O)CNC(=O)[C@H](CCC(=O)O)NC(=O)[C@H](CC(C)C)NC(=O)[C@H](Cc1ccc(O)cc1)NC(=O)[C@H](CO)NC(=O)[C@H](CO)NC(=O)[C@@H](NC(=O)[C@H](CC(=O)O)NC(=O)[C@H](CO)NC(=O)[C@@H](NC(=O)[C@H](Cc1ccccc1)NC(=O)[C@@H](NC(=O)CNC(=O)[C@H](CCC(=O)O)NC(=O)[C@H](C)NC(=O)[C@@H](N)Cc1cnc[nH]1)[C@@H](C)O)[C@@H](C)O)C(C)C)C(=O)N[C@@H](CCC(=O)O)C(=O)N[C@@H](Cc1ccccc1)C(=O)N[C@H](C(=O)N[C@@H](C)C(=O)N[C@@H](Cc1c[nH]c2ccccc12)C(=O)N[C@@H](CC(C)C)C(=O)N[C@H](C(=O)N[C@@H](CCCNC(=N)N)C(=O)NCC(=O)N[C@@H](CCCNC(=N)N)C(=O)NCC(=O)O)C(C)C)[C@@H](C)CC)C(=O)O [liraglutide, N^ε26-[(4S)-4-carboxy-4-(hexadecanoylamino)butanoyl]-[Arg^34]-GLP-1-(7-37)-peptide] | good composition stability | – | –
protamine sulphate | – | 30 to 60 | 30 to 80
